In paper PMC4823717 one finds percent of parent (parent (no dysregulation mutation) = 100) data, which are given here for 7 molecules.

The chains are these.
T1: Ffh (the protein subunit of signal recognition particle, SRP), wild type, P0AGD7
T1 chain: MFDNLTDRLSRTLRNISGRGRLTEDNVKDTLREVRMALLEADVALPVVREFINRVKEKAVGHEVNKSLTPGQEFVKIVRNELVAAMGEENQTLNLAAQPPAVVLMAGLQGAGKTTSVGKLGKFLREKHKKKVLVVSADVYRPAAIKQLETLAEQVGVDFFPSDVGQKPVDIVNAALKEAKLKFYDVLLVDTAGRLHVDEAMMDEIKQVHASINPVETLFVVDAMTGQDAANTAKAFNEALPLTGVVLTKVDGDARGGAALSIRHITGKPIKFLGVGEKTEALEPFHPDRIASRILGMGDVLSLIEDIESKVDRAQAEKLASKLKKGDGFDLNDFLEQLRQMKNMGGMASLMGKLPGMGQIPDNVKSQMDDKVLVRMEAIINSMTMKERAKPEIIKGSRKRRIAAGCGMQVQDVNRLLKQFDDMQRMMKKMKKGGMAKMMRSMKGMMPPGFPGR

B1: His6-σ32 T52pBPA, P0AGB3 K51E (protein)
chain: MTDKMQSLALAPVGNLDSYIRAANAWPMLSADEERALAEKLHYHGDLEAAE
B2: His6-σ32 T52pBPA, P0AGB3 A50D (protein)
chain: MTDKMQSLALAPVGNLDSYIRAANAWPMLSADEERALAEKLHYHGDLEADK

One experiment addresses Ffh (the protein subunit of signal recognition particle, SRP), wild type (UniProt P0AGD7). Briefly: in vivo photo-cross-linking ([35S]Met pulse-labeling, immunoprecipitation, SDS-PAGE, phosphorimaging). Conditions: 30 °C, M9-based medium with 1 mM pBPA, 1 mM IPTG for 6 min, [35S]Met for 1 min, UV irradiation; parent: 100; read off a plot.
Turning to “His6-σ32 K51pBPA (from UniProt P0AGB3) I54N”, the percent of parent (parent (no dysregulation mutation) = 100) worked out at 53. Take “His6-σ32 K51pBPA (from UniProt P0AGB3) R91P”: the percent of parent (parent (no dysregulation mutation) = 100) is 78. “His6-σ32 T52pBPA (from UniProt P0AGB3) I54N”: the percent of parent (parent (no dysregulation mutation) = 100) amounted to 43. The same measure, in the same setting: then “His6-σ32 T52pBPA (from UniProt P0AGB3) R91P”, with 76.

For the next experiment, the target named is T1, Ffh (the protein subunit of signal …). Described as above. To be noted: chain shown with the change; 30 °C, M9-based medium with 1 mM pBPA, 1 mM IPTG for 6 min, [35S]Met for 1 min, UV irradiation; parent: 100; read off a plot.
As for B1, the percent of parent (parent (no dysregulation mutation) = 100) is 95. Same read-out and setting: then B2, with 36; and MTDKMQSLALAPVGNLDSYIRAANAWPMLSADEERALAEKLHYHGDLEAD [His6-σ32 K51pBPA, P0AGB3 A50D], with 7.6.
